Source: patent US20070202552A1 (Genentech, published 2007)

Tests used:
[1] = target: T1, human HER-2 extracellular domain (HER-2 ECD) (human, UniProt P04626 23-646); experiment: competitive Fab-phage ELISA
T1 construct: range 23-646; also called erbB2; HER2 protein

human insulin (human) = human insulin (human) (UniProt P01308); experiment: specificity phage ELISA
human VEGF (human) = human VEGF (human) (UniProt P15692); experiment: specificity phage ELISA
[2] = target: human DR5 (construct not stated) (human) (UniProt O14763); experiment: specificity phage ELISA
human IGF-1 (human) = human IGF-1 (human) (UniProt P05019); experiment: specificity phage ELISA
neutravidin = neutravidin (UniProt P02701); experiment: specificity phage ELISA
[3] = target: T1, human HER-2 extracellular domain (HER-2 …); experiment: Fab-phage binding affinity
[4] = target: T1, human HER-2 extracellular domain (HER-2 …); experiment: competitive Fab-phage ELISA; remark: listed apart in the source
[5] = target: T1, human HER-2 extracellular domain (HER-2 …); experiment: competitive Fab-phage ELISA; remark: listed apart in the source
[6] = target: T1, human HER-2 extracellular domain (HER-2 …); experiment: SPR (BIAcore A100), HER2 amine-coupled to the chip, soluble Fab injected, 25 C

Binder	IC50 [1] [nM]	ELISA signal at 450 nm (human insulin (human))	ELISA signal at 450 nm (human VEGF (human))	ELISA signal at 450 nm [2]	ELISA signal at 450 nm (human IGF-1 (human))	ELISA signal at 450 nm (neutravidin)	IC50 [3] [nM]	IC50 [4] [nM]	IC50 [5] [nM]	Kd [6] [nM]	koff [6] [s⁻¹]	kon [6] [M⁻¹ s⁻¹]
Clone G37 (SX-surface), purified Fab (Fab, V domains shown) VH: EVQLVESGGGLVQPGGSLRLSCAASGFSIWWSWIHWVRQAPGKGLEWVASISPSSGWTSYADSVKGRFTISADTSKNTAYLQMNSLRAEDTAVYYCARWWSSAMDYWGQGTLVTVSS VL: DIQMTQSPSSLSASVGDRVTITCRASQDVNTAVAWYQQKPGKAPKLLIYSASSLYSGVPSRFSGSRSGTDFTLTISSLQPEDFATYYCQQWWWWPSTFGQGTKVEIK	0.31	0.45	0.23	0.21	0.32	0.32	0.31	–	–	–	–	–
G40 (Fab, V domains shown) VH: EVQLVESGGGLVQPGGSLRLSCAASGFSIWWSWIHWVRQAPGKGLEWVASISPSSGWTSYADSVKGRFTISADTSKNTAYLQMNSLRAEDTAVYYCARWSSWGLDYWGQGTLVTVSS VL: DIQMTQSPSSLSASVGDRVTITCRASQDVNTAVAWYQQKPGKAPKLLIYSASSLYSGVPSRFSGSRSGTDFTLTISSLQPEDFATYYCQQWSWWPSTFGQGTKVEIK	1.8	2.64	0.31	–	0.85	0.45	–	–	–	–	–	–
B27 (Fab, V domains shown, also called SXH3-B27 Fab-phage) VH: EVQLVESGGGLVQPGGSLRLSCAASGFSISYSSIHWVRQAPGKGLEWVASIYPYYGYTSYADSVKGRFTISADTSKNTAYLQMNSLRAEDTAVYYCARFFFFSSSFFGFDYWGQGTLVTVSS VL: DIQMTQSPSSLSASVGDRVTITCRASQDVNTAVAWYQQKPGKAPKLLIYSASSLYSGVPSRFSGSRSGTDFTLTISSLQPEDFATYYCQQYSYYPYTFGQGTKVEIK	–	–	–	–	–	–	71.7	71.7	–	–	–	–
Clone YSGR-A-42, purified soluble Fab (Fab, V domains shown, also called clone 42 (YSGR-A); clone 42) VH: EVQLVESGGGLVQPGGSLRLSCAASGFYISSSSIHWVRQAPGKGLEWVAYIYPSSGYTSYADSVKGRFTISADTSKNTAYLQMNSLRAEDTAVYYCARGYYYSYYSGYALDYWGQGTLVTVSS VL: DIQMTQSPSSLSASVGDRVTITCRASQDVNTAVAWYQQKPGKAPKLLIYSASSLYSGVPSRFSGSRSGTDFTLTISSLQPEDFATYYCQQSYSSPSTFGQGTKVEIK	–	–	–	–	–	–	0.32	–	0.32	0.57	0.0015	2.7e+06
Clone G54 (SX-surface), purified soluble Fab (Fab, V domains shown, Tyrosine-containing clone) VH: EVQLVESGGGLVQPGGSLRLSCAASGFSISSSYIHWVRQAPGKGLEWVASIYPYSGYTSYADSVKGRFTISADTSKNTAYLQMNSLRAEDTAVYYCARYYSYALDYWGQGTLVTVSS VL: DIQMTQSPSSLSASVGDRVTITCRASQDVNTAVAWYQQKPGKAPKLLIYSASSLYSGVPSRFSGSRSGTDFTLTISSLQPEDFATYYCQQSYYYPSTFGQGTKVEIK	2.44	–	–	–	–	–	2.44	–	–	11	0.0022	200000
Clone B11 (SXH3), purified soluble Fab (Fab, V domains shown, Tryptophan-containing clone) VH: EVQLVESGGGLVQPGGSLRLSCAASGFSIYSSYIHWVRQAPGKGLEWVASIYPYSGYTSYADSVKGRFTISADTSKNTAYLQMNSLRAEDTAVYYCARWWSSAFDYWGQGTLVTVSS VL: DIQMTQSPSSLSASVGDRVTITCRASQDVNTAVAWYQQKPGKAPKLLIYSASSLYSGVPSRFSGSRSGTDFTLTISSLQPEDFATYYCQQSYYYPSTFGQGTKVEIK	–	–	–	–	–	–	0.85	0.85	–	0.89	0.0017	1.9e+06
